Laboratory results taken from patent US20240182556A1 (OPSIDIO, published 2024).
Numbering of substitutions follows the chain as printed. Names and notes keep the numbering of the source.

T1: N-terminal biotinylated PE9413 (not fully specified; N-terminal biotin)
T1 construct: also called PE9411; N-ter PE9413
T1 peptide: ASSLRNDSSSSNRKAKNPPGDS

T2: PE9413, C-terminal biotinylated peptide mapping on Exon6 of the SCF molecule (SCF248) (C-terminal biotin)
T2 construct: also called C-terminal biotinylated PE9413; C-ter PE9413
T2 peptide: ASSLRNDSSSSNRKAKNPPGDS

B1: A64P scFv displayed on yeast (scFv, V domains shown)
VH: QVQLVQSGAELKKPGSSVKISCKSSGYAFSSNWMNWVKQRPGQGLEWIGQIYPEDGDTHYNGKFKGKATLTADKSTSTAYMELSSLTSEDSAVYFCSSSNWVGSYWGQGTLVTVSS
VL: DVVMTQSPLSLPVTLGQPASISCKSSQSLLEEDGNTYLNWLQQRPGQSPRRLIYLVNRLDDGVPDRFSGSGSGTDFTLKISRVEAEDVGVYYCWQGTDLPQTFGGGTKVEIK
notes: Aga2-anchored, VH-VL orientation; not shown: linker; SV5 tag
B2: A84P scFv displayed on yeast (scFv, V domains shown)
VH: B1 VH with N32Q, Y60M
VL: B1 VL with N57D, D61I
notes: as for B1
B3: A104P scFv displayed on yeast (scFv, V domains shown)
VH: B1 VH with N32Q
VL: B1 VL with N57D, D61S
notes: as for B1
B4: B104P scFv displayed on yeast (scFv, V domains shown)
VH: B1 VH with N32Q, E54D, G62D
VL: B1 VL with E32A, N57D, D61S
notes: as for B1
B5: B114P scFv displayed on yeast (scFv, V domains shown)
VH: B1 VH with N32Q, Y60M, V102D
VL: B1 VL with N57D, D61S
notes: as for B1
B6: B124P scFv displayed on yeast (scFv, V domains shown)
VH: B1 VH with G62D
VL: B1 VL with E32Q, N57D, D61S
notes: as for B1
B7: D14P scFv displayed on yeast (scFv, V domains shown)
VH: B1 VH with N32Q, E54G, G56D, G62D
VL: B1 VL with E32S, N57D, D61L
notes: as for B1
B8: D44P scFv displayed on yeast (scFv, V domains shown)
VH: B1 VH with N32Q, T58I
VL: B1 VL with N57D, D61S, T97S, D98H
notes: as for B1
B9: F54P scFv displayed on yeast (scFv, V domains shown)
VH: B1 VH with N32Q, Y60M, G66T
VL: B1 VL with N57D, D61S
notes: as for B1
B10: H74P scFv displayed on yeast (scFv, V domains shown)
VH: B1 VH with N32Q
VL: B1 VL with N57D, D61L, T97S, D98H
notes: as for B1
B11: H83P scFv displayed on yeast (scFv, V domains shown)
VH: B1 VH with N32Q, E54G, T58I, G62D
VL: B1 VL with E32S, N57D, D61S
notes: as for B1
B12: A44P scFv displayed on yeast (scFv, V domains shown)
VH: B1 VH with N32Q, G62D
VL: B1 VL with E32S, D61S
notes: as for B1
B13: B23P scFv displayed on yeast (scFv, V domains shown)
VH: B1 VH with N32Y, W33Y, E54G, Y60M
VL: B1 VL with E32S, N57S, L59R, D61S
notes: as for B1
B14: B34P scFv displayed on yeast (scFv, V domains shown)
VH: B1 VH with G62D
VL: B1 VL with E32S, N57S, L59R, D61S
notes: as for B1
B15: B53P scFv displayed on yeast (scFv, V domains shown)
VH: B1 VH with N32Q, T58I
VL: B1 VL with E32S, N57D, D61S
notes: as for B1
B16: D24P scFv displayed on yeast (scFv, V domains shown)
VH: B1 VH with N32Q
VL: B1 VL with E32S, N57S, D61I
notes: as for B1
B17: D74P scFv displayed on yeast (scFv, V domains shown)
VH: B1 VH with N32Q, E54G, G56N, G62D
VL: B1 VL with E32A, N57D, D61S
notes: as for B1
B18: D113P scFv displayed on yeast (scFv, V domains shown)
VH: B1 VH with N32Q, E54G, Y60M
VL: B1 VL with E32G, N57D, D61I
notes: as for B1
B19: D124P scFv displayed on yeast (scFv, V domains shown)
VH: B1 VH with N32Q
VL: B1 VL with E32S, N57D, D61S
notes: as for B1
B20: E94P scFv displayed on yeast (scFv, V domains shown)
VH: B1 VH with N32Q, E54G, Y60M
VL: B1 VL with N57D, D61S
notes: as for B1
B21: F64P scFv displayed on yeast (scFv, V domains shown)
VH: B1 VH with N32Y, W33Y, E54G, Y60M
VL: B1 VL with E32S, N57D, D61S
notes: as for B1
B22: G14P scFv displayed on yeast (scFv, V domains shown)
VH: B1 VH with N32Q, E54G, G62D
VL: B1 VL with N57D
notes: as for B1
B23: G24P scFv displayed on yeast (scFv, V domains shown)
VH: B1 VH with G62D
VL: B1 VL with E32S, N57D, D61S
notes: as for B1
B24: G104P scFv displayed on yeast (scFv, V domains shown)
VH: B1 VH with N32Q, E54G, Y60M
VL: B1 VL with N57D
notes: as for B1
B25: parental humanized 5H10 VK3/VH1 scFv (VH-linker-VL-SV5tag) displayed on yeast (scFv, V domains shown)
VH: B1 VH with N32Y, E54G
VL: B1 VL with E32S, N35K, N57S, D61S, D98H
notes: also called parental scFv; parental antibody; not shown: linker; SV5 tag

Target: T1, N-terminal biotinylated PE9413
Experiment: yeast-displayed scFv, flow cytometry titration of N-terminal biotinylated peptide
Experimental: The affinity of the 12 best clones for the N-terminal biotinylated target peptide […] was also evaluated. Each clone was incubated with increasing amounts of N-terminal biotinylated PE9413, and stained with a fluorescently labeled anti-streptavidin antibody. Binding of the clone to N-terminal biotinylated PE9413 was analyzed by flow cytometry. A plot of concentration of PE9413 versus the median fluorescent signal of the yeast cell population that bound to PE9413 was used to estimate the binding affinity (KD) of each clone to N-terminal biotinylated PE9413. The tested clones were confirmed to have improved affinities over the parental antibody 5H10 against the target sequence PE9413, regardless of the biotinylation modification, as reported in Table A3 and FIG. 12.

How did the Kd turn out when B1 was run?
The Kd was 5.23 nM.

Which Kd does the source give for B2 here?
Its Kd is 3.93 nM.

B3 was tested. Which Kd did it give?
The Kd was 5.85 nM.

Which Kd does the source give for B4 here?
The Kd was 6.38 nM.

With B5 as the binder, how does the Kd read?
Its Kd is 7.14 nM.

B6 was tested. Which Kd did it give?
The Kd was 5 nM.

How did the Kd turn out when B7 was run?
Its Kd is 5.38 nM.

B8 was tested. Which Kd did it give?
The Kd was 4.61 nM.

How did the Kd turn out when B9 was run?
The Kd was 5.66 nM.

For B10, which Kd is on record?
Its Kd is 4.9 nM.

How did the Kd turn out when B11 was run?
Its Kd is 5.3 nM.

Target: T2, PE9413, C-terminal biotinylated peptide …
Experiment: yeast-displayed scFv, flow cytometry titration of biotinylated peptide
Experimental: (§1) The binding of the selected 48 clones described above to 170 nM of C-terminal biotinylated PE9413 was evaluated. The 24 clones with the highest binding signal were further evaluated for binding affinity. Each clone was incubated with increasing amounts of biotinylated PE9413, and stained with a fluorescently labeled anti-streptavidin antibody. Binding of the clone to PE9413 was analyzed by flow cytometry. A plot of concentration of PE9413 versus the median fluorescent signal of the yeast cell population that bound to PE9413 was used to estimate the binding affinity (KD) of each clone to C-terminal biotinylated PE9413.

B12 was tested. Which Kd did it give?
Its Kd is 5.32 nM.

B1 was tested. Which Kd did it give?
The Kd was 3.29 nM.

With B2 as the binder, how does the Kd read?
Its Kd is 2.52 nM.

Which Kd does the source give for B3 here?
Its Kd is 3.64 nM.

For B13, which Kd is on record?
The Kd was 5.3 nM.

For B14, which Kd is on record?
The Kd was 5.06 nM.

How did the Kd turn out when B15 was run?
Its Kd is 4.97 nM.

B4 was tested. Which Kd did it give?
Its Kd is 4.52 nM.

With B5 as the binder, how does the Kd read?
Its Kd is 3.63 nM.

B6 was tested. Which Kd did it give?
The Kd was 3.82 nM.

How did the Kd turn out when B7 was run?
Its Kd is 4.39 nM.

For B16, which Kd is on record?
Its Kd is 14.4 nM.

Which Kd does the source give for B8 here?
Its Kd is 4.18 nM.

With B17 as the binder, how does the Kd read?
Its Kd is 6.38 nM.

With B18 as the binder, how does the Kd read?
The Kd was 8.07 nM.

For B19, which Kd is on record?
Its Kd is 6.97 nM.

B20 was tested. Which Kd did it give?
Its Kd is 6.33 nM.

For B9, which Kd is on record?
The Kd was 4.09 nM.

For B21, which Kd is on record?
The Kd was 6.69 nM.

With B22 as the binder, how does the Kd read?
The Kd was 5.93 nM.

Which Kd does the source give for B23 here?
Its Kd is 5.79 nM.

B24 was tested. Which Kd did it give?
The Kd was 7.09 nM.

With B10 as the binder, how does the Kd read?
Its Kd is 3.84 nM.

Which Kd does the source give for B11 here?
Its Kd is 4.08 nM.

Target: T2, PE9413, C-terminal biotinylated peptide …
Experiment: as above
Remark: another data set of the same source
Experimental: as §1, with “PE9413. […]” for “PE9413.”

How did the Kd turn out when B1 was run?
The Kd was 3.29 nM.

Which Kd does the source give for B2 here?
The Kd was 2.52 nM.

B3 was tested. Which Kd did it give?
The Kd was 3.64 nM.

Which Kd does the source give for B4 here?
Its Kd is 4.52 nM.

For B5, which Kd is on record?
The Kd was 3.63 nM.

B6 was tested. Which Kd did it give?
The Kd was 3.82 nM.

How did the Kd turn out when B7 was run?
Its Kd is 4.39 nM.

How did the Kd turn out when B8 was run?
The Kd was 4.18 nM.

For B9, which Kd is on record?
The Kd was 4.09 nM.

With B10 as the binder, how does the Kd read?
Its Kd is 3.84 nM.

For B11, which Kd is on record?
The Kd was 4.08 nM.

Target: T2, PE9413, C-terminal biotinylated peptide …
Experiment: yeast-displayed scFv, flow cytometry titration of biotinylated peptide (FIG. 16D)
Experimental: Yeast display methods were conducted as described by Ferrara et al. Briefly, cells were induced in induction media overnight at 20° C. 10⁵ induced cells were washed twice with wash buffer (PBS supplemented with 0.5% BSA) and incubated at room temperature with the biotinylated antigen diluted in PBS. To assess binding of the scFv, a C-terminal biotinylated peptide mapping on Exon6 of the SCF molecule was used (referred to herein as “PE9413”). […] The induced yeast population was stained with biotinylated PE9413 at different concentrations ranging from 50 nM to 2 μM (0 nM, 50 nM, 100 nM, 250 nM, 500 nM, 750 nM, 1000 nM, or 2000 nM). Volumes and incubation times were carefully adjusted according to parameters described in [3]. After the incubation with the target peptide, the yeast cells were washed twice with cold wash buffer and subsequently incubated at 4° C. for an additional 30 minutes with fluorescently labelled streptavidin (Streptavidin-AlexaFlu633), to detect binding of the biotinylated PE9413, and with the labelled anti-SV5 (anti-SV5-PE), to detect the scFv display levels on yeast cells. Following 2 washes with cold yeast wash buffer, the cells were resuspended in cold PBS and analyzed in the flow cytometer (FIG. 1).
The FACS sorted population was sorted kinetically to find clones with an improved Koff compared to the parenteral scFv. […]

With B25 as the binder, how does the Kd read?
Its Kd is 232 nM.

Target: T2, PE9413, C-terminal biotinylated peptide …
Experiment: yeast-displayed scFv, flow cytometry titration of biotinylated peptide
Remark: another data set of the same source

For B25, which Kd is on record?
Its Kd is 174 nM.
